Holding throughout (experiment): pull-down; GST fusion protein or GST immobilised on GSH beads, incubated with purified recombinant protein; 20 mM Tris-HCl pH 7.5, 150 mM NaCl, 3 mM EDTA, 0.5% Triton X-100, 4 C, 2 h; immunoblot
Holding throughout (conditions): both partners purified
On the technique in general: Immunoblotting shows a protein as a band on a membrane.

Test [1] has as its target T1, GST-RGLG2 (Arabidopsis thaliana, UniProt Q9LY87 1-468).
T1 construct: RGLG2, Arabidopsis; CDS subcloned into a GST-tag vector; also called RING DOMAIN LIGASE 2; source: E. coli BL21 (recombinant); immobilised on GSH beads; not shown: GST, N-terminal, kept
T1 sequence (looked up): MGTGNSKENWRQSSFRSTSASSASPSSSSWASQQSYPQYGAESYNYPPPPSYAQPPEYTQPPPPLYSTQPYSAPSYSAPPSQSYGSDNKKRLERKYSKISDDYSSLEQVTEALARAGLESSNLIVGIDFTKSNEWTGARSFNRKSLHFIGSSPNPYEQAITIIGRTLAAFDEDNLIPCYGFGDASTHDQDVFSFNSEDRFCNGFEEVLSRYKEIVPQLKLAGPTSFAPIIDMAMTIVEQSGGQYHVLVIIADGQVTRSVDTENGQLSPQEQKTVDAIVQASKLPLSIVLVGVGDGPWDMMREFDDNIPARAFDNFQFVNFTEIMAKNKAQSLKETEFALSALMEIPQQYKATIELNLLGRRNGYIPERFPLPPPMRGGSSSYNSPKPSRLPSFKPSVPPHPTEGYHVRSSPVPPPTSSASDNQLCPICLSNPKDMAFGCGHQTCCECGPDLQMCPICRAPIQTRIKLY

Test [2] concerns the target T2, RGLG1 (recombinant, in vitro; tag of the experiment not told) (Arabidopsis thaliana, UniProt Q9SS90 1-489).
T2 construct: RGLG1, Arabidopsis; CDS subcloned into His-, GST- or MBP-tag vectors; also called RING DOMAIN LIGASE 1; source: E. coli BL21, purified
T2 sequence (looked up): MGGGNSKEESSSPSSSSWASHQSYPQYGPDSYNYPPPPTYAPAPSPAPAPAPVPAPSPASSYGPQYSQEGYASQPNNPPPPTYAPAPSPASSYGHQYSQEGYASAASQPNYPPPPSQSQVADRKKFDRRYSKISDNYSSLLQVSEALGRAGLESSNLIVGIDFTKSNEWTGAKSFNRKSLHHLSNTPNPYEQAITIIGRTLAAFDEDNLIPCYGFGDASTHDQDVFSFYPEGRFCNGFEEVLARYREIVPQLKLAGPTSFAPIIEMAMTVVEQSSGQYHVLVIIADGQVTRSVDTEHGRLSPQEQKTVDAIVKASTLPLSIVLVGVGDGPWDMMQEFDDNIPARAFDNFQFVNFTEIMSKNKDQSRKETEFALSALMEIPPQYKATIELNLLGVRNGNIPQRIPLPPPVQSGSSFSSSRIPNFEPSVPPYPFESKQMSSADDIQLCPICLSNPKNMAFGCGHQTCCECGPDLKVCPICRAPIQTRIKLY

The target in test [3] is T3, RGLG2 (recombinant, in vitro; tag of the experiment not told) (Arabidopsis thaliana, UniProt Q9LY87 1-468).
T3 construct: RGLG2, Arabidopsis; CDS subcloned into His-, GST- or MBP-tag vectors; also called RING DOMAIN LIGASE 2; source: E. coli BL21, purified
T3 sequence (looked up): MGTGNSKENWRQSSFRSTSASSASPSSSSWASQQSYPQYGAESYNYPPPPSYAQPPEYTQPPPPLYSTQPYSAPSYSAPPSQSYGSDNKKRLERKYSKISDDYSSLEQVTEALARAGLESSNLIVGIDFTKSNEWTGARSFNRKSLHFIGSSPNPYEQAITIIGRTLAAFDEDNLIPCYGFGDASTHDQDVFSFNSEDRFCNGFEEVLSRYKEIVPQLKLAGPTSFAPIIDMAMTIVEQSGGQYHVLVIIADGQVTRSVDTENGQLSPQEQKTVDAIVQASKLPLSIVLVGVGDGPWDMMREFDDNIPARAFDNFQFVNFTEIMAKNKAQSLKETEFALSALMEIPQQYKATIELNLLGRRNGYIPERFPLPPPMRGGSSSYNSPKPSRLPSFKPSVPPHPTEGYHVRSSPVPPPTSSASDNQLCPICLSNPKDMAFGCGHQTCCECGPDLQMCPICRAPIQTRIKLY

Test [4] addresses T4, His-FLAG-RGLG1 (Arabidopsis thaliana, UniProt Q9SS90 1-489).
T4 construct: RGLG1, Arabidopsis; CDS subcloned into modified pET28a; also called RING DOMAIN LIGASE 1; source: E. coli BL21, purified (Ni-NTA); not shown: FLAG, N-terminal, kept
T4 sequence (looked up): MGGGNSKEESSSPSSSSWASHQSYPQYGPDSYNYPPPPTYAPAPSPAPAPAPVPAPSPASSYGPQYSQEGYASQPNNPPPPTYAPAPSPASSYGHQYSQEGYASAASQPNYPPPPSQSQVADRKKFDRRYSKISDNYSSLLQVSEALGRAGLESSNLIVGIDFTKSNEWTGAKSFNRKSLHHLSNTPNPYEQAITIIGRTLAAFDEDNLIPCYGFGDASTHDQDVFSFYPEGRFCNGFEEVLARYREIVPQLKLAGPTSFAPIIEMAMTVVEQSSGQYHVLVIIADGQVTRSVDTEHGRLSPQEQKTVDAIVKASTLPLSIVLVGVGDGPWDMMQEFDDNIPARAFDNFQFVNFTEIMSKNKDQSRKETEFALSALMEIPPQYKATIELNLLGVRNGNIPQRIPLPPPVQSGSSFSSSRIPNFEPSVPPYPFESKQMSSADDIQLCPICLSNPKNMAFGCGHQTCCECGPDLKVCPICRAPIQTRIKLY

B1: His-FLAG-PUB25 (natural protein, Arabidopsis thaliana, UniProt Q9LT79 1-421, looked up)
chain: MPRNIEPLDLGIQIPYHFRCPISLELMQDPVTVCTGQTYDRASIESWVSIGNNTTCPVTRAPLSDFTLIPNHTLRRLIQEWCVANRSNGVERIPTPKQPADPTSVRALLSQASAITGTHVSVRSRAAALRRLRGFARDSDKNRVLIAAHNATEILIKILFSETTSSELVSESLALLVMLPITEPNQFVSISSDPGRVEFLTRLLFDSSIETRVNAAALIEIVSTGTKSADLKGSISNSESVFEGVLDLLRNPISSRRALKIGIKTLFALCSVKSTRHIAITAGAPEILIDRLAADFDRCDTERALATVELLCRTPEGCAAFGEHALTVPLLVKTILRVSDRATEYAAGALLALCTAEERWREEAAGAGVVVQLLLMVQSECTERAKKKAQKLLKLLRDSWPDYNSFANSDDFGCSSQVVPF
notes: PUB25, Arabidopsis; CDS subcloned into modified pET28a; also called PLANT U-BOX PROTEIN 25; source: E. coli BL21, purified (Ni-NTA); not shown: FLAG, N-terminal, kept
Take B1: the binding result in test [1] is listed as “binds”.

B2: PUB25 (recombinant, in vitro; tag of the experiment not told) (natural protein, Arabidopsis thaliana, UniProt Q9LT79 1-421, looked up)
chain: MPRNIEPLDLGIQIPYHFRCPISLELMQDPVTVCTGQTYDRASIESWVSIGNNTTCPVTRAPLSDFTLIPNHTLRRLIQEWCVANRSNGVERIPTPKQPADPTSVRALLSQASAITGTHVSVRSRAAALRRLRGFARDSDKNRVLIAAHNATEILIKILFSETTSSELVSESLALLVMLPITEPNQFVSISSDPGRVEFLTRLLFDSSIETRVNAAALIEIVSTGTKSADLKGSISNSESVFEGVLDLLRNPISSRRALKIGIKTLFALCSVKSTRHIAITAGAPEILIDRLAADFDRCDTERALATVELLCRTPEGCAAFGEHALTVPLLVKTILRVSDRATEYAAGALLALCTAEERWREEAAGAGVVVQLLLMVQSECTERAKKKAQKLLKLLRDSWPDYNSFANSDDFGCSSQVVPF
notes: PUB25, Arabidopsis; CDS subcloned into His-, GST- or MBP-tag vectors; also called PLANT U-BOX PROTEIN 25; source: E. coli BL21, purified
With B2, the binding result in test [2] is “binds”.

B3: GST-BIK1 (natural protein, Arabidopsis thaliana, UniProt O48814 1-395, looked up)
chain: MGSCFSSRVKADIFHNGKSSDLYGLSLSSRKSSSTVAAAQKTEGEILSSTPVKSFTFNELKLATRNFRPDSVIGEGGFGCVFKGWLDESTLTPTKPGTGLVIAVKKLNQEGFQGHREWLTEINYLGQLSHPNLVKLIGYCLEDEHRLLVYEFMQKGSLENHLFRRGAYFKPLPWFLRVNVALDAAKGLAFLHSDPVKVIYRDIKASNILLDADYNAKLSDFGLARDGPMGDLSYVSTRVMGTYGYAAPEYMSSGHLNARSDVYSFGVLLLEILSGKRALDHNRPAKEENLVDWARPYLTSKRKVLLIVDNRLDTQYLPEEAVRMASVAVQCLSFEPKSRPTMDQVVRALQQLQDNLGKPSQTNPVKDTKKLGFKTGTTKSSEKRFTQKPFGRHLV
notes: BIK1, Arabidopsis; pGEX-BIK1 (modified pGEX-6P-1); also called BIK1 fused to a GST tag; source: E. coli BL21, purified; immobilised on GSH beads; not shown: GST, N-terminal, kept
Consider B3, for which the binding result in test [3] and in test [4] was “binds” in each case.

The values above are taken from paper PMC10397244, “BIK1 protein homeostasis is maintained by the interplay of different ubiquitin ligases in immune signaling” (Nature Communications, 2023).
